Laboratory results reported in patent US20200199241A1 (Chugai, published 2020).
Residue numbers refer to the chain shown, from its start. Names and notes keep the numbering of the source.

B1: IL6R-BP131/IL6R-L (antibody, human IgG1)
heavy: QVQLQESGPGLVKPSETLSLTCAVSGHSISHDHAWSWVRQPPGEGLEWIGFISYSGITNYNPSLQGRVTISRDNSKNTLYLQMNSLRAEDTAVYYCARSLARTTAMDYWGEGTLVTVSSASTKGPSVFPLAPSSKSTSGGTAALGCLVKDYFPEPVTVSWNSGALTSGVHTFPAVLQSSGLYSLSSVVTVPSSSLGTQTYICNVNHKPSNTKVDKKVEPKSCDKTHTCPPCPAPDLLGDDSVFLFPPKPKDTLMISRTPEVTCVVVDVSHEDPEVKFNWYVDGVEVHNAKTKPREEQYNSTYRVVSVLTVLHQDWLNGKEYKCKVSNKALPKPIEKTISKAKGQPREPQVYTLPPSRDELTKNQVSLTCLVKGFYPSDIAVEWESNGQPENNYKTTPPVLDSDGSFFLYSKLTVDKSRWQQGNVFSCSVMHEALHNHYTQESLSLSP
light: DIQMTQSPSSLSASVGDRVTITCRASQDISSYLNWYQQKPGKAPKLLIYYTSRLHSGVPSRFSGSGSGTDFTFTISSLQPEDIATYYCQQGNTLPYTFGQGTKVEIK
B2: IL6R-BP143/IL6R-L (antibody, human IgG1)
heavy: B1 heavy with D235E, L236Y, D239G, K328A, K332A
light: B1 light
B3: IL6R-BP149/IL6R-L (antibody, human IgG1)
heavy: B1 heavy with L236Y, Y298D, K328A
light: B1 light
B4: IL6R-BP150/IL6R-L (antibody, human IgG1)
heavy: B1 heavy with D235E, L236Y, K328A, K332R
light: B1 light
B5: IL6R-BP151/IL6R-L (antibody, human IgG1)
heavy: B1 heavy with L236Y, K328A, K332R
light: B1 light
B6: IL6R-BP177/IL6R-L (antibody, human IgG1)
heavy: B1 heavy with L236Y, P273G, K328D
light: B1 light
B7: IL6R-BP082/IL6R-L (antibody, human IgG1)
heavy: B1 heavy with D239G
light: B1 light
B8: antibody with VH3-IgG1-F938 heavy chain and L(WT)-CK light chain (antibody)
heavy: B1 heavy with D235E, L237K, D239G, D240P, S241K, M254Y, K332A, N436Y, Y438V, E441K
light: not shown
notes: L235K/S239K on VH3-IgG1-F890; copies: 2 + 2
B9: antibody with VH3-IgG1-F1315 heavy chain and L(WT)-CK light chain (antibody)
heavy: B1 heavy with D235E, D239K, D240P, S241K, M254Y, K332A, N436Y, Y438V, E441K
light: not shown
notes: G237K/S239K on VH3-IgG1-F890; copies: 2 + 2
B10: antibody with VH3-IgG1-F1316 heavy chain and L(WT)-CK light chain (antibody)
heavy: B1 heavy with D235E, D239R, D240P, S241K, M254Y, K332A, N436Y, Y438V, E441K
light: not shown
notes: G237R/S239K on VH3-IgG1-F890; copies: 2 + 2
B11: antibody with VH3-IgG1-F1317 heavy chain and L(WT)-CK light chain (antibody)
heavy: B1 heavy with D235E, D239G, D240P, S241K, M254Y, P331K, K332A, N436Y, Y438V, E441K
light: not shown
notes: S239K/P329K on VH3-IgG1-F890; copies: 2 + 2
B12: antibody with VH3-IgG1-F1318 heavy chain and L(WT)-CK light chain (antibody)
heavy: B1 heavy with D235E, D239G, D240P, S241K, M254Y, P331R, K332A, N436Y, Y438V, E441K
light: not shown
notes: S239K/P329R on VH3-IgG1-F890; copies: 2 + 2
B13: antibody with VH3-IgG1-F1325 heavy chain and L(WT)-CK light chain (antibody)
heavy: QVQLQESGPGLVKPSETLSLTCAVSGHSISHDHAWSWVRQPPGEGLEWIGFISYSGITNYNPSLQGRVTISRDNSKNTLYLQMNSLRAEDTAVYYCARSLARTTAMDYWGEGTLVTVSSASTKGPSVFPLAPSSKSTSGGTAALGCLVKDYFPEPVTVSWNSGALTSGVHTFPAVLQSSGLYSLSSVVTVPSSSLGTQTYICNVNHKPSNTKVDKKVEPKSCDKTHTCPPCPAPEAAGGPSVFLFPPKPKDTLYISRTPEVTCVVVDVSHEDPEVKFNWYVDGVEVHNAKTKPREEQYASTYRVVSVLTVLHQDWLNGKEYKCKVSNKALPAPIEKTISKAKGQPREPQVYTLPPSRDELTKNQVSLTCLVKGFYPSDIAVEWESNGQPENNYKTTPPVLDSDGSFFLYSKLTVDKSRWQQGNVFSCSVMHEALHYHVTQKSLSLSP
light: not shown
notes: L234A/L235A/N297A on VH3-IgG1-F890; copies: 2 + 2
B14: antibody with VH3-IgG1-F1333 heavy chain and L(WT)-CK light chain (antibody)
heavy: B13 heavy with A236L, A237R, G238R, S241K, A299N
light: not shown
notes: L235R/G236R/S239K on VH3-IgG1-F890; copies: 2 + 2
B15: antibody with VH3-IgG1-F1356 heavy chain and L(WT)-CK light chain (antibody)
heavy: B13 heavy with A236L, A237L, G238R, A299N, L330R
light: not shown
notes: G236R/L328R on VH3-IgG1-F890; copies: 2 + 2
B16: IL6R-PD080/IL6R-L (antibody)
chain 1: B1 heavy with D235E, M254Y, K332A, N436Y, E441K
chain 2: not shown

The binders below were run against T1, FcγRIIb (human, UniProt P31994 43-217, limits assumed) (assay: ratio of SPR KDs; reference IL6R-B3/IL6R-L).
T1 construct: SPR analyte; also called FcγIIB; CD32
T1 sequence: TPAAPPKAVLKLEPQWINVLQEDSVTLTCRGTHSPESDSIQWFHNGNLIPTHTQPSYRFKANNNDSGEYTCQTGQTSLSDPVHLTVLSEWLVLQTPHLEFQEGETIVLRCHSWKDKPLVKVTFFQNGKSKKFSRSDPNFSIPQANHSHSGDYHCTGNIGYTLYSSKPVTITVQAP
Excerpt: (§1) Furthermore, KD(IIaR)/KD(IIb) and KD(IIaH)/KD(IIb) in the table respectively represent the value obtained by dividing the KD value of each variant for FcγRIIaR by the KD value of each variant for FcγRIIb, and the value obtained by dividing the KD value of each variant for FcγRIIaH by the KD value of each variant for FcγRIIb. KD(IIb) of the parent polypeptide/KD(IIb) of the altered polypeptide refers to the value obtained by dividing the KD value of the parent polypeptide for FcγRIIb by the KD value of each variant for FcγRIIb.

| Binder | KD(IIb) of the parent polypeptide/KD(IIb) of altered polypeptide |
| --- | --- |
| B1 | 12.6 |
| B2 | 5.4 |
| B3 | 33.1 |
| B4 | 99 |
| B5 | 77.4 |
| B6 | 60 |
| B7 | 5.8 |

What follows are binders tested against T1, FcγRIIb (assay: SPR (Biacore), antibody captured, FcγR analyte).
Excerpt: as §1

| Binder | Kd |
| --- | --- |
| B1 | 250 nM |
| B2 | 570 nM |
| B3 | 93 nM |
| B4 | 31 nM |
| B5 | 40 nM |
| B6 | 52 nM |
| B7 | 540 nM |

Target: T2, FcγRIIa type R (human, UniProt P12318 36-217)
T2 construct: SPR analyte; also called FcγRIIaR; FcγRIIa(R)
T2 chain: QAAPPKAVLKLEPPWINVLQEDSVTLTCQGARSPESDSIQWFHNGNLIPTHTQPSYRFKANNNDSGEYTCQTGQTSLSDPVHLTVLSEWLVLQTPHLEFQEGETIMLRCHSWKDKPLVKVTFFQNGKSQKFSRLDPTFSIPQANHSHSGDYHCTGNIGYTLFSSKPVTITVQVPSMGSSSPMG
Assay: SPR (Biacore), antibody captured, FcγR analyte
Excerpt: as §1

| Binder | Kd |
| --- | --- |
| B1 | 3100 nM |
| B2 | 5700 nM |
| B3 | 1400 nM |
| B4 | 550 nM |
| B5 | 670 nM |
| B6 | 710 nM |
| B7 | 12000 nM |

The binders below were run against T3, FcγRIIIa type V (human, UniProt P08637 17-208, limits assumed) (assay: SPR (Biacore), antibody captured, FcγR analyte).
T3 construct: SPR analyte; allotype V158 was used here; also called FcγRIIIaV; FcγRIIIa(V)
T3 sequence (P08637 other isoform, or with tags, fused parts or gaps limits assumed): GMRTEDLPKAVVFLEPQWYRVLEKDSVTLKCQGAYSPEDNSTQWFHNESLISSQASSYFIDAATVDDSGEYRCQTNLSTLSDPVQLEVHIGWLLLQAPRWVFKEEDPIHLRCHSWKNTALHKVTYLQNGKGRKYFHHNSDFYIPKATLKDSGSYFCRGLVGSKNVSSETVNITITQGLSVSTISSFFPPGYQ
Excerpt: as §1

| Binder | Kd |
| --- | --- |
| B1 | 59000 nM |
| B2 | 62000 nM |
| B3 | 37000 nM |
| B4 | 34000 nM |
| B5 | 31000 nM |
| B6 | 37000 nM |
| B7 | 81000 nM |

These binders were tested against T4, FcγRIa (human, UniProt P12314 16-292, limits assumed) (assay: SPR (Biacore), antibody captured, FcγR analyte).
T4 construct: SPR analyte; also called CD64
T4 sequence (P12314 16-292 limits assumed): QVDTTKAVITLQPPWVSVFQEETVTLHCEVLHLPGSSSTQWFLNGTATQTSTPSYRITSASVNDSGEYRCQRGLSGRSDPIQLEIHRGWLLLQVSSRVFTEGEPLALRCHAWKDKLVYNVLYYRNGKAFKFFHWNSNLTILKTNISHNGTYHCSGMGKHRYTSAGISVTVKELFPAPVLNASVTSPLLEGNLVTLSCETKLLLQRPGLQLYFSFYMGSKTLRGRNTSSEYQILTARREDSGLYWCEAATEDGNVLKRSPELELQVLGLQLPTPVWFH
Excerpt: as §1

| Binder | Kd |
| --- | --- |
| B1 | 120 nM |
| B2 | 16 nM |
| B3 | 120 nM |
| B4 | 320 nM |
| B5 | 84 nM |
| B6 | 33 nM |
| B7 | 18 nM |

These binders were tested against T5, FcγRIIa type H (human, UniProt P12318 36-217) (assay: SPR (Biacore), antibody captured, FcγR analyte).
T5 construct: SPR analyte; also called FcγRIIaH
T5 sequence: T2 chain with R133H
Excerpt: as §1

| Binder | Kd |
| --- | --- |
| B1 | 14000 nM |
| B2 | 27000 nM |
| B3 | 8400 nM |
| B4 | 3400 nM |
| B5 | 4700 nM |
| B6 | 8200 nM |
| B7 | 37000 nM |

What follows are binders tested against T6, human FcγRIIb (human, UniProt P31994 43-217, limits assumed) (assay: SPR, antibody captured by Protein L, human FcγR as analyte, pH 7.4, 25 C;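 also: biacore T100 or T200 with Protein L amine-coupled on a CM4 chip, FcγRs diluted in ACES saline with polysorbate 20, buffer-only injection as blank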).
T6 construct: also called hFcgRIIb; FcγIIB
T6 sequence: T1 sequence

| Binder | BINDING AMOUNT (RU) |
| --- | --- |
| B8 | -0.14 RU |
| B9 | 0.63 RU |
| B10 | -0.44 RU |
| B11 | -0.23 RU |
| B12 | 0.26 RU |
| B13 | 1.46 RU |
| B14 | -0.2 RU |
| B15 | 0.63 RU |

The binders below were run against T7, human FcγRIa (human, UniProt P12314 16-292, limits assumed) in the same assay as above.
T7 construct: also called hFcgRIa; hFcgRI
T7 sequence (P12314 16-292 limits assumed): as above

| Binder | BINDING AMOUNT (RU) |
| --- | --- |
| B8 | -0.49 RU |
| B9 | -2.71 RU |
| B10 | -0.12 RU |
| B11 | -1.46 RU |
| B12 | -0.31 RU |
| B13 | -0.47 RU |
| B14 | -0.35 RU |
| B15 | -0.9 RU |

The binders below were run against T8, human FcγRIIa(H) (human, UniProt P12318 36-217) in the same assay as above.
T8 construct: also called hFcgRIIa(H); FcγRIIa type H
T8 sequence: T2 chain with R133H

| Binder | BINDING AMOUNT (RU) |
| --- | --- |
| B8 | -0.05 RU |
| B9 | -1.37 RU |
| B10 | -0.34 RU |
| B11 | -0.76 RU |
| B12 | -1.12 RU |
| B13 | -0.62 RU |
| B14 | -0.56 RU |
| B15 | -0.22 RU |

Target: T9, human FcγRIIa(R) (human, UniProt P12318 36-217)
T9 construct: also called hFcgRIIa(R); FcγRIIa type R
T9 chain: T2 chain
Assay: as above

| Binder | BINDING AMOUNT (RU) |
| --- | --- |
| B8 | -0.12 RU |
| B9 | -1.14 RU |
| B10 | -0.33 RU |
| B11 | -1.48 RU |
| B12 | -1.59 RU |
| B13 | -1.17 RU |
| B14 | -0.15 RU |
| B15 | -0.23 RU |

Each binder was assayed against T10, human FcγRIIIa(V) (human, UniProt P08637 17-208, limits assumed) in the same assay as above.
T10 construct: also called hFcgRIIIa(V); allotype V158
T10 sequence (P08637 other isoform, or with tags, fused parts or gaps limits assumed): as the sequence (P08637 other isoform, or with tags, fused parts or gaps limits assumed) above

| Binder | BINDING AMOUNT (RU) |
| --- | --- |
| B8 | 1.2 RU |
| B9 | -2.69 RU |
| B10 | -0.42 RU |
| B11 | -2.76 RU |
| B12 | -3.63 RU |
| B13 | -2.4 RU |
| B14 | -1.42 RU |
| B15 | 0.09 RU |

Target: T2, FcγRIIa type R
Assay: ratio of SPR KDs; stronger receptor here FcγRIIaR; reference IL6R-B3/IL6R-L (FcγRIIaH)
Excerpt: as §1

| Binder | KD of the stronger of FcγRIIaR/FcγRIIaH binding of the variant / that of the parent polypeptide |
| --- | --- |
| B1 | 4 |
| B2 | 7.5 |
| B3 | 1.8 |
| B4 | 0.7 |
| B5 | 0.9 |
| B6 | 0.9 |
| B7 | 15.8 |

What follows are binders tested against T1, FcγRIIb (assay: ratio of SPR KDs: KD for FcγRIIaH over KD for FcγRIIb).
Excerpt: (§2) Furthermore, KD(IIaR)/KD(IIb) and KD(IIaH)/KD(IIb) in the table respectively represent the value obtained by dividing the KD value of each variant for FcγRIIaR by the KD value of each variant for FcγRIIb, and the value obtained by dividing the KD value of each variant for FcγRIIaH by the KD value of each variant for FcγRIIb.

| Binder | KD(IIaH)/KD(IIb) |
| --- | --- |
| B1 | 56.9 |
| B2 | 47.1 |
| B3 | 89.9 |
| B4 | 109 |
| B5 | 118 |
| B6 | 159 |
| B7 | 69 |

These binders were tested against T1, FcγRIIb (assay: ratio of SPR KDs: KD for FcγRIIaR over KD for FcγRIIb).
Excerpt: as §2

| Binder | KD(IIaR)/KD(IIb) |
| --- | --- |
| B1 | 12.5 |
| B2 | 10 |
| B3 | 15 |
| B4 | 17.7 |
| B5 | 16.9 |
| B6 | 13.8 |
| B7 | 22.8 |

Target: T11, human FcγRIIa type R (human, UniProt P12318 36-217)
T11 construct: also called FcγRIIaR; FcγRIIa(R)
T11 chain: T2 chain
Assay: SPR (Biacore), antibody captured, FcγR as analyte

| Binder | Kd |
| --- | --- |
| B16 | 21000 nM |
